Assay results as given in article PMC3440374, “High Inorganic Triphosphatase Activities in Bacteria and Mammalian Cells: Identification of the Enzymes Involved” (PLoS ONE, 2012).

Columns and labels:
CyaB = molecular target: T1, CyaB (Aeromonas hydrophila, UniProt O69199); assay: inorganic phosphate release, colorimetric; type: biochemical; settings: 0.5 mM substrate, 5 mM Mg2+ or Mn2+, pH 9.1, 50°C
T1 construct: full length from first Met, cloned in PVP16 as 8HIS-MBP fusion, tag removed by TEV digestion; produced in E. coli BL21DE3; nickel column
T1 sequence (O69199 1-191): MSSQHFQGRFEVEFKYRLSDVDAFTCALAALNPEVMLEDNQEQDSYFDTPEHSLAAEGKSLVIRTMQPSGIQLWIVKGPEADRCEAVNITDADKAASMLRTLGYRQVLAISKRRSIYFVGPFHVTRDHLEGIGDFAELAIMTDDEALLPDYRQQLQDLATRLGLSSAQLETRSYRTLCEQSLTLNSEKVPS

[1] = substrate: O=P(O)(O)OP(=O)(O)OP(=O)(O)O; assay: inorganic phosphate release, colorimetric; type: biochemical, Escherichia coli; settings: 10 mM Mg2+, 50 mM CHES pH 9.1, 25°C
[2] = substrate: O=P(O)(O)OP(=O)(O)OP(=O)(O)O; assay: inorganic phosphate release, colorimetric, Michaelis-Menten fit; type: biochemical, Escherichia coli; settings: 5 mM Mg2+, pH 8.5, 50°C

In the case of Cc1ncc(C[n+]2csc(CCOP(=O)(O)OP(=O)(O)OP(=O)(O)O)c2C)c(N)n1 [ThTP], the “inorganic phosphate release, colorimetric” value (CyaB) is reported as “it indeed hydrolyzes substrates such as ATP, ThTP and PPPi but at a low rate”.

With O=P(O)(O)OP(=O)(O)OP(=O)(O)O [PPPi] the “inorganic phosphate release, colorimetric” value (CyaB) was “it indeed hydrolyzes substrates such as ATP, ThTP and PPPi but at a low rate”.

B1: EcPPase (Escherichia coli K-12) (protein)
chain: SLLNVPAGKDLPEDIYVVIEIPANADPIKYEIDKESGALFVDRFMSTAMFYPCNYGYINHTLSLDGDPVDVLVPTPYPLQPGSVIRCRPVGVLKMTDEAGEDAKLVAVPHSKLSKEYDHIKDVNDLPELLKAQIAHFFEHYKDLEKGKWVKVEGWENAEAAKAEIVASFERAKNK
notes: commercial purified recombinant preparation (Sigma-Aldrich); 20 kDa per subunit
With B1 the Km [1] was 910 ± 90 µM and the kcat [1] was 16.7 s⁻¹.

B2: GST-ygiF (Escherichia coli K-12) (protein)
chain: MAQEIELKFIVNHSAVEALRDHLNTLGGEHHDPVQLLNIYYETPDNWLRGHDMGLRIRGENGRYEMTMKVAGRVTGGLHQRPEYNVALSEPTLDLAQLPTEVWPNGELPADLASRVQPLFSTDFYREKWLVAVDGSQIEIALDQGEVKAGEFAEPICELELELLSGDTRAVLKLANQLVSQTGLRQGSLSKAARGYHLAQGNPAREIKPTTILHVAAKADVEQGLEAALELALAQWQYHEELWVRGNDAAKEQVLAAISLVRHTLMLFGGIVPRKASTHLRDLLTQCEATIASAVSAVTAVYSTETAMAKLALTEWLVSKAWQPFLDAKAQGKISDSFKRFADIHLSRHAAELKSVFCQPLGDRYRDQLPRLTRDIDSILLLAGYYDPVVAQAWLENWQGLHHAIATGQRIEIEHFRNEANNQEPFWLHSGKR
notes: produced in E. coli DH5alpha, GSTrap purified
Work on B2 yielded a Km [2] of 270 ± 25 µM.
